From article PMC4670963

Experiments:
Flag-tagged Sufu [1] = molecular target: Flag-tagged Sufu (UniProt Q9UMX1); test: co-IP; NIH3T3 cells transfected with HA-Gli1 or HA-Gli2 and Flag-Sufu, without exogenous Hck; immunoprecipitated with anti-Flag; western blot with anti-HA or anti-Flag; bands quantified with ImageJ against the input
Flag-tagged Sufu [2] = molecular target: Flag-tagged Sufu (UniProt Q9UMX1); test: co-IP; As a2 but with co-expressed exogenous HA-Hck or kinase-inactive Hck-K269E; immunoprecipitated with anti-Flag; western blot with anti-HA, anti-Flag or 4G10

Sequence of UniProt Q9UMX1 (Q9UMX1 whole entry): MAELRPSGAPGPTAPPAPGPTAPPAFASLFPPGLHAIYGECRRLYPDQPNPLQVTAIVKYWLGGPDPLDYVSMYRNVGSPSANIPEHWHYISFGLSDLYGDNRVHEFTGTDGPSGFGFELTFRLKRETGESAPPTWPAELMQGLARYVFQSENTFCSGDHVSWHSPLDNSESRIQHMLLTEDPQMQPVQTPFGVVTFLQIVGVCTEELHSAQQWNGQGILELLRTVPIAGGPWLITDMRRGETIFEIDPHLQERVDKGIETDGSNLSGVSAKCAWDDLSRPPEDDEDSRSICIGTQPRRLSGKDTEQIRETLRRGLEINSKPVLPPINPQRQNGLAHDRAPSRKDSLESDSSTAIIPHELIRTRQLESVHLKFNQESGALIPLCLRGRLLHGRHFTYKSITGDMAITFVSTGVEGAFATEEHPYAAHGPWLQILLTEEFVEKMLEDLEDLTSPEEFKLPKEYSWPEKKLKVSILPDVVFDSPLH

percent of Gli1 co-immunoprecipitated with Sufu (against the input) (Flag-tagged Sufu [1]): 30%
percent of Gli1 co-precipitated with Sufu (against the input), with co-expressed HA-Hck (Flag-tagged Sufu [2]): 5%
Substance: HA-Gli1 (from UniProt P08151 1-1106) (natural protein)
